The record followed here is patent publication US20070197430A1, “Conjugates And Therapeutic Uses Thereof” (priority 2004, published 2007).

The test system of data set [1] is pre-B tumor cells from E-mu myc transgenic mice. Description: Cell viability by propidium iodide exclusion, flow cytometry. It counts as cell-based. The settings on record: Mus musculus, 24 h, read-out: % viable cells at 24 hours. In general terms: Flow cytometry measures light scatter and fluorescence of single cells or particles in a stream.
Procedure: After 24 hours incubation at 37° C. in 5% CO2, the cells were washed with PBS and 50 μL of 100 μg/mL solution of propidium iodide was added to each well. The cells were analyzed by flow cytometry (BD Facscan) and the viable cells denoted as the percentage of cells excluding propidium iodide.
Data set [2] deals with T1, Bcl-w ΔC29 (Homo sapiens, UniProt Q92843).
T1 sequence (Q92843 1-164 limits assumed): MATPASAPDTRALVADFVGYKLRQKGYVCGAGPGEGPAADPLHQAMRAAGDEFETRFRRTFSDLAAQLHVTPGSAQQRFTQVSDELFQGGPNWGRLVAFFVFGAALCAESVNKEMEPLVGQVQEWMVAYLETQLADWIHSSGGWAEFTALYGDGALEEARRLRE
As to the kind of experiment: Alphascreen GST competition assay with biotinylated Bim BH3-26 peptide. The data set is classed as binding. To be noted: Example 14, two values given per peptide. (In Alpha technology, singlet oxygen from a donor bead excites a nearby acceptor bead.)

Data set [3] concerns the target T2, Bcl-xL ΔC25 (Homo sapiens, UniProt Q07817). As to the kind of experiment: Alphascreen GST competition assay with biotinylated BimBH3 peptide. To be noted: Example 14, two values given per peptide. The data set is classed as binding. On the procedure:
(§1) Using solution competition assays and Alphascreen GST-detection as described below, the constrained peptide of Example 2 (peptide A) was assessed for competition binding to Bcl-2 homologues, Bcl-w ΔC29, Bcl-xL ΔC25 and Mcl-1 ΔC23.
(§2) All the assays were performed using 384-well white plates in a total volume of 20 μL. The assay buffer is 50 mM HEPES, 10 mM DTT, 100 mM NaCl, 0.05% Tween 20, 0.1 mg/mL casein, pH 7.4. The bead buffer is 50 mM Tris, 1% Tween 20, 0.1 mg/mL casein, pH 7.5.
(§3) For the GST-Bcl-wΔC29 protein assay, protein (0.10 nM), acceptor beads (10 μg/mL), 50% assay buffer and 50% bead buffer were incubated together for 30 minutes. At the same time, biotinylated BimBH3 peptide (Biotin-[…]-OH) (3 nM), donor beads (10 μg/mL), 50% assay buffer and 50% bead buffer were incubated to get for 30 minutes. For the competition binding assay, protein acceptor bead solution (10 μL) and the candidate compound, A, L1 or L2, were added into each well and incubated for 30 minutes, then biotinylated BimBH3 peptide donor bead solution (10 μL) was added into each well. The total DMSO concentration in each well was then adjusted to 0.5% to 2%. Plates were covered with aluminium foil and incubated at room temperature for 4 hours before reading in a Packard Fusion™ reader with excitation at 680 nm and emission at 520-620 nm. […]
Target sequence in this assay (Q07817 1-208 limits assumed): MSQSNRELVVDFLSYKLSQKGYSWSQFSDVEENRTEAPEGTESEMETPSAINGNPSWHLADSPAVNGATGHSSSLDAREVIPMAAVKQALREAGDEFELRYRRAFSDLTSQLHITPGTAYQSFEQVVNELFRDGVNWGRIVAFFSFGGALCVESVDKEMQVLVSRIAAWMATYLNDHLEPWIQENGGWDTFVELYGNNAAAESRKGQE

Data set [4] concerns Mcl-1 ΔC23. As to the kind of experiment: Alphascreen GST competition assay with biotinylated BakBH3 peptide. It counts as binding. To be noted: Example 14, two values given per peptide. On the procedure:
as §1, §2, §3

The target in data set [5] is T2, Bcl-xL ΔC25. As to the kind of experiment: Surface plasmon resonance direct binding (Biacore S51). The settings on record: SPR dissociation constant. An excerpt: (§4) In separate assay experiments, surface plasmon resonance (SPR) experiments using a Biacore S51 Biosensor were used as proof of direct binding of peptide A to Bcl-w ΔC29, Bcl-xL ΔC25 and Mcl-1 ΔC23. This technique also has the advantage of yielding dissociation constants, which are shown below.

For data set [6], the target named is Mcl-1 ΔC23. Described as above. The settings on record: SPR dissociation constant.
Text: as §4

Data set [7] in a line: Circular dichroism, alpha-helical content of peptides. It counts as physicochemical. To be noted: 30% aqueous trifluoroethanol. How it is done:
Circular dichroism spectra were obtained using a Jasco Model J-710 spetropolarimeter at 20° C. using the following parameters: path length, 2 mm; step resolution, 0.1 nm; speed, 20 nm/min, accumulation, 4; response, 1 second; bandwidth, 1.0 nm. The peptides were analysed at a concentration of 0.5 mg/mL in 30% aqueous TFE. The alpha-helical content of the peptides were determined by methods described in Yang et al (1986), involving comparisons of spectra with model helical peptides.
On the technique in general: Circular dichroism is widely used to follow secondary structure.

For data set [8], the target named is GST tagged Bcl w delta C29 protein (UniProt Q92843). As to the kind of experiment: competition assay; competitor: biotinylated BIM-BH3 peptide.
Data set [9] shares this target. Description: competition assay; competitor: biotinylated Bim BH3 peptide.
Data set [10] deals with 6-His tagged Bcl w delta C10 protein (UniProt Q92843). Description: competition assay; competitor: biotinylated Bim-BH3 peptide.
In data set [11] the target is Bcl-2 ΔC22 (Homo sapiens, UniProt P10415). The data set is described as above.
Data set [12] has as its target GST tagged Bcl w delta C29 protein (UniProt Q92843). Described as above.
In data set [13] the target is T2, Bcl-xL ΔC25. As to the kind of experiment: SPR, Biacore S51, direct binding.
For data set [14], the target named is Mcl-1 ΔC23 (UniProt Q07820). Description: SPR, Biacore S51, direct binding.
The target of data set [15] is Mcl-1 ΔC23 (UniProt Q07820). As to the kind of experiment: AlphaScreen GST detection; competitor: biotinylated BakBH3 peptide.
The target of data set [16] is T2, Bcl-xL ΔC25. Description: AlphaScreen GST detection; competitor: biotinylated BimBH3 peptide.
Data set [17] addresses GST tagged Bcl w delta C29 protein (UniProt Q92843). The description is as above.
In data set [18] the target is Mcl-1 ΔC23 (UniProt Q07820). As to the kind of experiment: AlphaScreen GST detection; competitor: biotinylated BakBH3 peptide; second of two values.
The target in data set [19] is T2, Bcl-xL ΔC25. As to the kind of experiment: AlphaScreen GST detection; competitor: biotinylated BimBH3 peptide; second of two values.
Data set [20] has as its target GST tagged Bcl w delta C29 protein (UniProt Q92843). The data set is described as above.

Several values for one entry are separate records, joined by “and”; a condition that tells them apart may be missing. Equal values may be shown once. Bridge positions count the residues as written; N and C are the ends. Peptide text beside a SMILES is read from it.

Take `COc1cc([C@@H]2c3cc4c(cc3[C@@H](O[C@@H]3O[C@@H]5CO[C@@H](C)O[C@H]5[C@H](O)[C@H]3O)[C@H]3COC(=O)[C@H]23)OCO4)cc(OC)c1O` [Etoposide]: the viability at 0.015 µM in [1] (concentration 0.015 μM) was determined as 80%. For the same molecule, the viability at 0.0312 µM in data set [1] (concentration 0.0312 μM) was 50%. In addition, in data set [1] (concentration 0.0625 μM), the viability at 0.0625 µM is 21%. The viability at 0.125 µM in data set [1] (concentration 0.125 μM) was found to be 0%. The viability at 0.25 µM in [1] (concentration 0.25 μM) stood at 0%. In data set [1] (concentration 0.5 μM), the viability at 0.5 µM amounted to 0%. The viability at 1 µM in [1] (concentration 1.0 μM) turned out to be 0%.
For the molecule `CC[C@H](C)[C@H](NC(C)=O)C(=O)N[C@@H](C)C(=O)N[C@@H](CCC(N)=O)C(=O)N[C@@H](CCC(N)=O)C(=O)N[C@@H](CC(C)C)C(=O)N[C@@H](CCCNC(=N)N)C(=O)N[C@@H](CCCNC(=N)N)C(=O)N[C@H](C(=O)NCC(=O)N[C@@H](CC(=O)O)C(=O)N[C@@H](CCC(N)=O)C(=O)N[C@@H](Cc1ccccc1)C(N)=O)[C@@H](C)CC` [Peptide L2] (Ac-IAQQLRRIGDQF-NH2), the IC50 (commonly the point on the concentration scale where inhibition reaches its midpoint) in [2] was 120 nM; in data set [3], 960 nM and 890 nM; in data set [4], 650 nM and 660 nM. The Kd (in general, the free concentration of one partner at which half of the binding sites on the other are occupied at equilibrium, for simple one-to-one binding) in data set [5] turned out to be 370 nM; in data set [6], 920 nM.
Regarding `CC[C@H](C)[C@H](NC(C)=O)C(=O)N[C@@H](C)C(=O)N[C@@H](CCC(N)=O)C(=O)N[C@@H](CCC(=O)O)C(=O)N[C@@H](CC(C)C)C(=O)N[C@@H](CCCNC(=N)N)C(=O)N[C@@H](CCCNC(=N)N)C(=O)N[C@H](C(=O)NCC(=O)N[C@@H](CC(=O)O)C(=O)N[C@@H](CCC(=O)O)C(=O)N[C@@H](Cc1ccccc1)C(N)=O)[C@@H](C)CC` [Peptide L1] (Ac-IAQELRRIGDEF-NH2), the “% Helicity” value in [7] is recorded as 9%. The IC50 in data set [2] was 820 nM and 800 nM; in [3], 7000 nM and 6300 nM; in [4] it was 400 nM and 360 nM. Besides, the values for the equilibrium dissociation constant (Kd) in [5] and in data set [6] were 5200 nM and 1200 nM, respectively.
In the case of `CC[C@H](C)[C@H](NC(C)=O)C(=O)N[C@@H](C)C(=O)N[C@@H](CCC(N)=O)C(=O)N[C@H]1CCC(=O)NCC(=O)NCCNC(=O)CC[C@@H](C(=O)N[C@@H](Cc2ccccc2)C(N)=O)NC(=O)[C@H](CC(=O)O)NC(=O)CNC(=O)[C@H]([C@@H](C)CC)NC(=O)[C@H](CCCNC(=N)N)NC(=O)[C@H](CCCNC(=N)N)NC(=O)[C@H](CC(C)C)NC1=O` [D, Ac-IAQ-E-LRRIGD-E-F-NH2] (HELM PEPTIDE1{[ac].I.A.Q.E.L.R.R.I.G.D.E.F.[am]}|CHEM1{[O=C(CN[*:1])NCCN[*:2]]}$PEPTIDE1,CHEM1,5:R3-1:R1|PEPTIDE1,CHEM1,12:R3-1:R2$$$V2.0), the “% Helicity” value in [7] is reported as 16%.
Take Ac-IWIAQELRRIGDEFNA-NH2 [linear 16-mer Ac-…-NH2]: the IC50 in [8] and in data set [9] was 2.5 nM throughout.

B1: Peptide D: Ac-IAQ-E-LRRIGD-E-F-NH2 with a -NHCH2C(═O)NHCH2CH2NH- linker (peptide)
peptide: IAQELRRIGDEF
HELM: PEPTIDE1{[ac].I.A.Q.E.L.R.R.I.G.D.E.F.[am]}|CHEM1{[O=C(CN[*:1])NCCN[*:2]]}$PEPTIDE1,CHEM1,5:R3-1:R1|PEPTIDE1,CHEM1,12:R3-1:R2$$$V2.0
SMILES: CC[C@H](C)[C@H](NC(C)=O)C(=O)N[C@@H](C)C(=O)N[C@@H](CCC(N)=O)C(=O)N[C@H]1CCC(=O)NCC(=O)NCCNC(=O)CC[C@@H](C(=O)N[C@@H](Cc2ccccc2)C(N)=O)NC(=O)[C@H](CC(=O)O)NC(=O)CNC(=O)[C@H]([C@@H](C)CC)NC(=O)[C@H](CCCNC(=N)N)NC(=O)[C@H](CCCNC(=N)N)NC(=O)[C@H](CC(C)C)NC1=O
On to B1, for which the IC50 in data set [10] stood at 40 nM; in data set [11], 6900 nM; in data set [12], 160 nM.
In the case of Ac-IAQELRRIGDEF-NH2 (linker 4-11 via 1,5‑diaminopentane) [Acetyl-IAQ(E1)LRRIGD(E2)F-amide with a 1,5-diaminopentane linker (second position)], the Kd in data set [13] and in data set [14] was 10 nM each time. Also, the IC50 was determined as 65 nM in [10]; 290 nM in data set [11]; 150 nM in data set [12]; 3 nM in data set [15]; 57 nM in data set [16]; 40 nM in data set [17]. Also, the IC50 in data set [18] turned out to be 3 nM; in [19], 54 nM; in [20], 34 nM.
Molecule Ac-IAQQLRRIGDQF-NH2 [L2 Ac-…-NH2] came in with a Kd in data set [14] of 920 nM. Besides, the IC50 in data set [15] is 650 nM; in data set [16], 960 nM; in data set [18], 660 nM; in [19] it was 890 nM.
Regarding Ac-IAQELRRIGDEF-NH2 [Linear 12mer Ac-…-NH2], the dissociation constant (Kd) in data set [13] turned out to be 5200 nM; in data set [14] it was 1200 nM. The IC50 in data set [10] is 870 nM; in data set [11], 240000 nM; in [12] it was 4700 nM; in [15], 400 nM; in data set [16], 7000 nM; in data set [17] it was 820 nM. The IC50 was determined as 360 nM in data set [18], 6300 nM in [19] and 800 nM in data set [20].
Ac-IAQELRRIGDEF-NH2 (linker 4-11 via 1,6‑diaminohexane) [Peptide C: Ac-IAQ-E-LRRIGD-E-F-NH2 with a 1,6-diaminohexane linker]: the figures for the IC50 in [10], in data set [11] and in data set [12] were 230 nM, 2600 nM and 120 nM, respectively.
Take Ac-IWIAQELRRIGDEFNA-NH2 (linker 6-13 via ‑NHCH2C(═O)(CH2)2NH2‑): the IC50 in data set [8] was determined as 0.3 nM. This lies in the sub-nanomolar range.
Still for that read-out and setting: as for Ac-IWIAQELRRIGDEFNA-NH2 (linker 6-13 via 1,5‑diaminopentane) [Peptide E: constrained 16-mer with a pentane linker tethering the two glutamate residues], the figure is 0.5 nM.
As to Ac-EIAQELREIGDEF-NH2 (linker 1-8 via 1,5‑diaminopentane) [Peptide A of Example 7: Ac-E-IAQELR-E-IGDEF-NH2 with a 1,5-diaminopentane linker (first position)], the half-inhibitory concentration (IC50) worked out at 2600 nM in [10], 26000 nM in data set [11] and 1800 nM in [12].
